Legend:
[1] = tested on: mixed culture of cell lines GFG, EPG, TPG and parental Ba/F3; assay: Cytokine responses in mixed and individual cell cultures (Example 2); format: cell-based, mouse; conditions: mixed culture of four cell lines (each 4×10^3 cells/well), similar in individual cultures, 72 hours, WST-8; listed as hTPO
Method: Mixed culture of the cell lines GFG, EPG, and TPG, which express human G-CSF, EPO, and TPO chimeric receptors, respectively, and their parental cell line Ba/F3 was conducted and their response to various cytokines was examined.
The cells were washed twice with RPMI1640 media containing 2% fetal bovine serum, and then were suspended in RPMI1640 containing 10% fetal bovine serum. The four cell lines were mixed by adjusting each of the cell lines to 4×10^4 cells/mL (16×10^4 cells/mL in total) for the mixed culture, and, for individual cultures, cells were prepared at 4×10^4 cells/mL. 100 μL each of the cells were independently seeded on a 96-well microtiter plate (flat bottom, Falcon). After adding 100 μL/well each of appropriately diluted cytokines, the cultures were cultured for 72 hours in a CO2 incubator (5% CO2 concentration). After the culture, 10 μL/well WST-8 reagent (Cell Count Reagent SF; Nacalai Tesque) was added, and pre-reaction absorbance at a measurement wavelength of 450 nm and a control wavelength of 655 nm was measured using a microplate reader (Model 3550, Bio Rad). The plate was incubated for two hours in a CO2 incubator (CO2 concentration, 5%), and post-reaction absorbance was measured as above. Data were graphed out taking the cytokine concentrations on the horizontal axis and the amount of changes in absorbance after 2-hour incubation on the vertical axis (FIGS. 18, 19, and 20).

[2] = target: T1, chimeric TPO receptor (human TPO receptor extracellular domain / mouse G-CSF receptor) in Ba/F3 cell line TPG (Homo sapiens, UniProt P40238); assay: Growth response of chimeric TPO receptor-expressing Ba/F3 cell line TPG (WST-8); format: cell-based; conditions: 72 hours culture, WST-8 absorbance
T1 construct: from the 1st to the 491st amino acid residues; expressed in transfected cells; host or cells: mouse Ba/F3 cells, clone TPG#219 = TPG
T1 sequence (P40238 26-491): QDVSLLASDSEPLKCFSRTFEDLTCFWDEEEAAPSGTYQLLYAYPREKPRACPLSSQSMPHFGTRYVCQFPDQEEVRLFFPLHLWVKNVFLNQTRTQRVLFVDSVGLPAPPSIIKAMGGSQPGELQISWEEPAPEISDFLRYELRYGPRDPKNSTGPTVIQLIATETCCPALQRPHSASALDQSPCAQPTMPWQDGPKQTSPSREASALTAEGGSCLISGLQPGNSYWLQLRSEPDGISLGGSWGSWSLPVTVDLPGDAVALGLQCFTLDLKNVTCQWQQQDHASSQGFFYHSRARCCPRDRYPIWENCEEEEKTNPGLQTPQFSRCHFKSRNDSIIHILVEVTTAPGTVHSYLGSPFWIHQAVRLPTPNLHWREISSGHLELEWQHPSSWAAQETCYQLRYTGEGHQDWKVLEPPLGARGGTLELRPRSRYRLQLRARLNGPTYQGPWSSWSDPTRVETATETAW
Text: A chimeric receptor cDNA was constructed by linking cDNA fragments encoding the extracellular domain (from the 1st to the 491st amino acid residues; Vigon, I. et al. (1992) Proc. Natl. Acad. Sci. USA 89, 5640-5644) of human TPO receptor, and the transmembrane and intracellular domains (from the 602nd to the 813th amino acid residues; Fukunaga, R. et al. (1990) Cell 61, 341-350) of mouse G-CSF receptor. The cDNA was inserted downstream of the EF1α promoter of the mammalian expression vector pCOS-G to construct chimeric receptor-expression vector TG/pCOS-G. TG/pCOS-G was linearized with Pvu I (Takara Shuzo), extracted with phenol and chloroform, and purified by ethanol precipitation.
The linearized expression gene vector was introduced into mouse Ba/F3 cells (purchased from RIKEN; Cell No.: RCB0805) using an electroporation apparatus (Gene Pulser: Bio Rad) The Ba/F3 cells were washed twice with Dulbecco's PBS (hereinafter referred to as PBS), and then were suspended in PBS to give a cell density of about 1×10^7 cells/mL. […]
The cells were washed twice with Media A, and were suspended in Media A to give a cell density of 5×10^4 cells/mL. […] The absorbance at a measurement wavelength of 450 nm and a control wavelength of 655 nm after the 2 hours incubation was measured using microplate reader (Model 3550, Bio Rad).

[3] = target: T2, chimeric IL-10 receptor (human IL-10Rα and IL-10Rβ / mouse G-CSF receptor) in Ba/F3 cell line 10G (Homo sapiens, UniProt Q08334+Q13651); assay: Growth response of chimeric IL-10 receptor-expressing Ba/F3 cell line 10G (WST-8); format: cell-based; conditions: 72 hours culture, WST-8 absorbance
T2 construct: from the 1st to the 235th amino acid residue; from the 1st to the 220th amino acid residues; expressed in transfected cells; host or cells: mouse Ba/F3 cells co-transfected with pCV-cIL10Rα and pCV-cIL10Rβ, clone 10G#10 = 10G
T2 sequence (Q13651 22-235): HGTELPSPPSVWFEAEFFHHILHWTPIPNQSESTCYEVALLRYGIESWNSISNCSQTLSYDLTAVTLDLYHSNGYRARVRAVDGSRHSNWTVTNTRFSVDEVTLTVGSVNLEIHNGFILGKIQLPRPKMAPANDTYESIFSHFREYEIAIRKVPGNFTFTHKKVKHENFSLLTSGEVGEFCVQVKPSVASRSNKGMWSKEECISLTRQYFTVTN
T2 sequence (Q08334 20-220): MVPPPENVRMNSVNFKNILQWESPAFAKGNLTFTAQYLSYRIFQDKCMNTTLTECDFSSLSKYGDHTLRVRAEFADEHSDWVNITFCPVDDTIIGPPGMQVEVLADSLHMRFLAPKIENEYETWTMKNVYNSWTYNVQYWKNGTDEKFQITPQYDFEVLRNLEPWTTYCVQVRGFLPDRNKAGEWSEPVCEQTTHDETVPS
T2 sequence (P40223 627-837 partner limits assumed): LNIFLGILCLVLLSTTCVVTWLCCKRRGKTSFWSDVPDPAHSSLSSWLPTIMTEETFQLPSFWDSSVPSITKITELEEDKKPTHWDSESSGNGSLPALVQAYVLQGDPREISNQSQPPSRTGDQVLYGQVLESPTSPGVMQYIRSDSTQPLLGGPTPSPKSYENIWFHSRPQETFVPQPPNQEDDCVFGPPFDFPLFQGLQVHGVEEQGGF
Text: Chimeric receptor cDNAs were constructed by linking cDNA fragments encoding the α chain (IL-10Rα) (from the 1st to the 235th amino acid residue; Liu, Y. et al. (1994) J. Immunol. 152, 1821-1829) and the hIL-10R subunit (CRFB4; IL-10Rβ) extracellular domain (from the 1st to the 220th amino acid residues; Lutfalla, G. et al. (1993) Genomics 16, 366-373) of human IL-10 receptor with the transmembrane and intracellular domains (from the 602nd to the 813th amino acid residues; Fukunaga, R. et al. (1990) Cell 61, 341-350) of mouse G-CSF receptor, respectively. […]
The cells were washed twice with Media A, and were suspended in Media A to give a cell density of 5×10^4 cells/mL. […] After the culture, 10 μL/well WST-8 reagent (Cell Count Reagent SF; Nacalai Tesque) was added, and pre-reaction absorbance at a measurement wavelength of 450 nm and a control wavelength of 655 nm was measured using microplate reader (Model 3550, Bio Rad). The plate was incubated for two hours in a CO2 incubator (CO2 concentration, 5%), and post-reaction absorbance was measured as above. […]

| Substance | concentration where the response was observed to start [1] | concentration at which an evident growth reaction was observed [2] | concentration at which an evident growth reaction was observed [3] |
| --- | --- | --- | --- |
| thrombopoietin [human TPO] | 200 pg/mL | ≥ 100 pg/mL |  |
| human IL-10: human interleukin 10 (Genzyme) |  |  | ≥ 0.5 ng/mL |
